Target: the molecule itself
Experiment: non-reducing PAGE of protein isolated from CHO cells

B1: active domain of GDF-6 fused to a FLAG tag (SEQ ID NO: 25) (ligand)
chain: MDYKDDDDKENLYFQGTAFASRHGKRHGKKSRLRCSKKPLHVNFKELGWDDWIIAPLEYEAYHCEGVCDFPLRSHLEPTNHAIIQTLMNSMDPGSTPPSCCVPTKLTPISILYIDAGNNVVYKQYEDMVVESCGCR
notes: It was secreted by CHO cells; the Western blot was run under reducing conditions; also called active fragment of GDF-6; active fragment
Question: Does B1 bind?
Answer: Result: binds

From patent US20120208753A1 (published 2012)
